Assay [1] concerns the target human Notch1-LD/Fc (LIN/dimerization domain fused to Fc region at the carboxyl terminus) (human) (UniProt P46531). In words: ELISA on coated Notch1-LD/Fc.
Assay [2] addresses Notch3-LD/Fc fusion protein (Notch3 LIN12/dimerization domain fused to human gamma 1 Fc) (human) (UniProt Q9UM47). In words: ELISA on coated Notch3-LD/Fc. On the technique in general: An ELISA detects its analyte on a solid surface through an enzyme-linked reagent.
For assay [3], the target named is full-length human Notch3 receptor expressed on cells (human) (UniProt Q9UM47). As to the kind of experiment: cell-based or functional assay.

Sequence of UniProt P46531 (P46531 1440-1735 limits assumed, form in doubt): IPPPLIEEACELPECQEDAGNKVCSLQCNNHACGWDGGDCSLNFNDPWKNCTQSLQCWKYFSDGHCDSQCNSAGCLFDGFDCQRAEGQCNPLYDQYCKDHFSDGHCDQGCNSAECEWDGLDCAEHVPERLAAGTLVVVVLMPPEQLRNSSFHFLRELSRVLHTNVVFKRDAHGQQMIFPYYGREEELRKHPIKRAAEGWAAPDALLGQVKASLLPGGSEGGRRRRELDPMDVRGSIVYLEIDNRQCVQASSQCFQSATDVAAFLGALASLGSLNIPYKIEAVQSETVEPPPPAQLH

Take “Control IgG1 (irrelevant IgG1 monoclonal antibody)”: the ELISA OD reading (mean) in assay [1] was 0.066 OD 450 nm; in assay [2], 0.064 OD 450 nm.

For “human Jagged2 expressed on 293 cells (Jagged2/293F) (from UniProt Q9Y219 24-1238) (ligand)”, in assay [3], the luciferase activity (CBF1-Luc reporter) of NC85 cells cocultured with Jagged2/293F, against coculture with PCDNA 3.1/293T lay within 2 to 4 fold.

Regarding “human Jagged1 expressed on 293T cells (Jagged1/293T) (from UniProt P78504 34-1218) (ligand)”, in assay [3], the luciferase activity (CBF1-Luc reporter) of NC85 cells cocultured with Jagged1/293T, against coculture with PCDNA 3.1/293T is 2 to 4 fold.

For the origin of these results see patent US20110223155A1.
